Results taken from PMC2121028 (The Journal of Cell Biology, 1996).

B1: alpha-COP, the 135-kD subunit of coatomer (bovine), GAL4 fusion (natural protein, UniProt Q27954 1-1224, looked up)
chain: MLTKFETKSARVKGLSFHPKRPWILTSLHNGVIQLWDYRMCTLIDKFDEHDGPVRGIDFHKQQPLFVSGGDDYKIKVWNYKLRRCLFTLLGHLDYIRTTFFHHEYPWILSASDDQTIRVWNWQSRTCVCVLTGHNHYVMCAQFHPSEDLVVSASLDQTVRVWDISGLRKKNLSPGAVESDVRGITGVDLFGTTDAVVKHVLEGHDRGVNWAAFHPTMPLIVSGADDRQVKIWRMNESKAWEVDTCRGHYNNVSCAVFHPRQELILSNSEDKSIRVWDMSKRTGVQTFRRDHDRFWVLAAHPNLNLFAAGHDGGMIVFKLERERPAYAVHGNMLHYVKDRFLRQLDFNSSKDVAVMQLRSGSKFPVFSMSYNPAENAVLLCTRASNLENSTYDLYTIPKDADTQNPDAPEGKRSSGLTAVWVARNRFAVLDRMHSLLIKNLKNEITKKVQVPNCDEIFYAGTGNLLLRDAESITLFDVQQKRTLASVKISKVKYVIWSADMSHVALLAKHAIVICNRKLEALCNIHENIRVKSGAWDESGVFIYTTSNHIKYAVTTGDYGIIRTLDLPIYVTRVKGNNVYCLDRECRPRVLTIDPTEFKFKLALINRKYDEVLHMVRNAKLVGQSIIAYLQKKGYPEVALHFVKDEKTRFSLALECGNIEIALEAAKALDDKNCWEKLGEVALLQGNHQIVEMCYQRTKNFDKLSFLYLITGNLEKLRKMMKIAEIRKDMSGHYQNALYLGDVSERVRILKNCGQKSLAYLTAATHGLDEEAESLKETFDPEKETIPDIDPNAKLLQPPAPIMPLDTNWPLLTVSKGFFEGSIASKGKGGALAADIDIDTVGTEGWGEDAELQLDEDGFVEATEGLGDDALGKGQEEGGGWDVEEDLELPPELDIPPGAAGGAEDGFFVPPTKGTSPTQIWCNNSQLPVDHILAGSFETAMRLLHDQVGVTQFGPYKQLFLQTYARGRTTYQALPCLPSMYGYPNRNWKDAGLKNGVPAVGLKLNDLIQRLQLCYQLTTVGKFEEAVEKFRSILLSVPLLVVDNKQEIAEAQQLITICREYIVGLSMETERKKLPKETLEQQKRICEMAAYFTHSNLQPVHMILVLRTALNLFFKLKNFRTAAAFARRLLELGPKPEVAQQTRKILSACEKNPTDAYQLNYDMHNPFDICAASYRPIYRGKPVEKCPLSGACYSPEFKGQICKVTTVTEIGKDVIGLRISPLQFR
B2: epsilon-COP, GAL4 fusion (natural protein)
chain: not shown

Assays:
epsilon-COP, GAL4 fusion = target: B2; experiment: two-hybrid
[1] = target: B1; experiment: two-hybrid

Chain of epsilon-COP, GAL4 fusion (Q28104 whole entry, the tested form may be a part): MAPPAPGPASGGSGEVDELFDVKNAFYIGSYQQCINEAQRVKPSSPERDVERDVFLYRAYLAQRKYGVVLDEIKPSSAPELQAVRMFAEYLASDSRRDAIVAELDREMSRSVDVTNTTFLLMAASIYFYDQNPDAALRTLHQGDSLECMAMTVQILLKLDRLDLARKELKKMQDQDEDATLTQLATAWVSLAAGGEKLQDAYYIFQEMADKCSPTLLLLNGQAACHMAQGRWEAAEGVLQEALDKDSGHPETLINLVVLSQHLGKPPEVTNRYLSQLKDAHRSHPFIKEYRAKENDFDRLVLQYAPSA

B1
generations/day in -His + 25 mM AT (epsilon-COP, GAL4 fusion): 2.8 generations/day

B2
generations/day in -His + 25 mM AT [1]: 5.2 generations/day

B3: beta'-COP, GAL4 fusion (natural protein, bovine, UniProt P35605 1-906, looked up)
chain: MPLRLDIKRKLTARSDRVKSVDLHPTEPWMLASLYNGSVCVWNHETQTLVKTFEVCDLPVRAAKFVARKNWVVTGADDMQIRVFNYNTLERVHMFEAHSDYIRCIAVHPTQPFILTSSDDMLIKLWDWDKKWSCSQVFEGHTHYVMQIVINPKDNNQFASASLDRTIKVWQLGSSSPNFTLEGHEKGVNCIDYYSGGDKPYLISGADDRLVKIWDYQNKTCVQTLEGHAQNVSCASFHPELPIIITGSEDGTVRIWHSSTYRLESTLNYGMERVWCVASLRGSNNVALGYDEGSIIVKLGREEPAMSMDANGKIIWAKHSEVQQANLKAMGDAEIKDGERLPLAVKDMGSCEIYPQTIQHNPNGRFVVVCGDGEYIIYTAMALRNKSFGSAQEFAWAHDSSEYAIRESNSVVKIFKNFKEKKSFKPDFGAESIYGGFLLGVRSVNGLAFYDWENTELIRRIEIQPKHIFWSDSGELVCIATEESFFILKYLSEKVLAAQETHEGVTEDGIEDGFEVLGEIQEIVKTGLWVGDCFIYTSSVNRLNYYVGGEIVTIAHLDRTMYLLGYIPKDNRLYLGDKELNIVSYSLLVSVLEYQTAVMRRDFSMADKVLPTIPKEQRTRVAHFLEKQGFKQQALTVSTDPEHRFELALQLGELKIAYQLAVEAESEQKWKQLAELAISKCQFGLAQECLHHAQDYGGLLLLATASGNASMVNKLAEGAERDGKNNVAFMSYFLQGKLDACLELLIRTGRLPEAAFLARTYLPSQVSRVVKLWRENLSKVNQKAAESLADPTEYENLFPGLKEAFVVEEWVKETHADLWPAKQYPLVTPNEERNVMEEAKGFQPSRSAAQQELDGKPASPTPVIVTSQTANKEEKSLLELEVDLDNLEIEDIDTTDINLDEDILDD
generations/day in -His + 25 mM AT [1]: 2.11 generations/day
